According to patent US6455025B1, “Polysaccharide-peptide derivatives” (Map Medical Technologies Oy, priority 1996, dated 2002):

How the values were obtained:
[1] = Holmberg et al. 1994; cited from earlier work
[2] = system: tumours and other background tissues; assay: Gamma-recording after technetium-99m labelled dextran derivative: accumulation into tumours and background tissues; details: patient, 20 mCi technetium-99m labelled dextran derivative
Description: The Effect of Different Dextran Conjugates on the Tumour Accumulation and Background-activity
After the administration of 20 mCi of technetium-99 m, labelled dextran derivative to the patient a gamma-recording was carried out on the patient. From the image, the accumulation of the labelled compound into the tumours and to the other background tissues was evaluated. The compounds of the state of the art were prepared as described in the publication Holmberg et al., Antibody Immunoconj. Radiopharm 7: 253-257, 1994.

Substance	half-life in blood T(1)½ [1] [h]	half-life in blood T(2)½ [1] [h]	Background (accumulation of the labelled compound into other background tissues) [2]	Tumour (accumulation of the labelled compound into the tumours) [2]
Dextran 10 000 somatostatin-^99mTc: State of the art conjugate prepared as in Holmberg et al. 1994; dextran 10 000 somatostatin labelled with technetium-99m	4	8	+++	+
Dextran 10 000 somatostatin-taurine-^99mTc: Technetium-99m labelled dextran 10 000 somatostatin taurine conjugate, listed under The Invention			++	+
Dextran 40 000 somatostatin ^99mTc: State of the art dextran 40 000 somatostatin conjugate labelled with technetium-99m, without taurine			++	++
Dextran 40 000 somatostatin-taurine ^99mTc: Dextran 40 000-somatostatin-taurine labelled with technetium-99m using SnCl and sodium pertechnetate			+	
